Measured values as given in US20070282095.

How the values were obtained:
[1] = molecular target: blood coagulation factor 13 (Fibrogammin P) (UniProt P00488)
fibrinogen = fibrinogen (UniProt P02671)
fibrinogen, sequence (P02671 20-629, chain 1 of 3): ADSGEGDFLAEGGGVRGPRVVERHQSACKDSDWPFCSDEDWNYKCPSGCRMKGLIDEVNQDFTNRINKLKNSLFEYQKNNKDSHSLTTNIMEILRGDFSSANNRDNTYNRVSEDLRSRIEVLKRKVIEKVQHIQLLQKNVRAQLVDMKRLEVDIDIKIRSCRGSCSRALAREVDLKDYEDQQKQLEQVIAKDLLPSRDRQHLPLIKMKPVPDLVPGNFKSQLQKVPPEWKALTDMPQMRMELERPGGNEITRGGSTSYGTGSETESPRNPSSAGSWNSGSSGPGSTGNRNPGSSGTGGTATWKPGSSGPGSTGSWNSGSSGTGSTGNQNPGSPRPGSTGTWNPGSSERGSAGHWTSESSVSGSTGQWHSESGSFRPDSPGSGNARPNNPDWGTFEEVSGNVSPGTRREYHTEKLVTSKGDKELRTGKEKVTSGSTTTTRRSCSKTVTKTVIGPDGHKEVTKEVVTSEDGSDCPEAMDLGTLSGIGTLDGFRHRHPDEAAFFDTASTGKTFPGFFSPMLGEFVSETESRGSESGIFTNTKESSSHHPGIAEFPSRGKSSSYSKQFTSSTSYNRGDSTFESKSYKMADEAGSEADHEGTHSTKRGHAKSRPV
fibrinogen, sequence (chain, as listed by the source, chain 2 of 3): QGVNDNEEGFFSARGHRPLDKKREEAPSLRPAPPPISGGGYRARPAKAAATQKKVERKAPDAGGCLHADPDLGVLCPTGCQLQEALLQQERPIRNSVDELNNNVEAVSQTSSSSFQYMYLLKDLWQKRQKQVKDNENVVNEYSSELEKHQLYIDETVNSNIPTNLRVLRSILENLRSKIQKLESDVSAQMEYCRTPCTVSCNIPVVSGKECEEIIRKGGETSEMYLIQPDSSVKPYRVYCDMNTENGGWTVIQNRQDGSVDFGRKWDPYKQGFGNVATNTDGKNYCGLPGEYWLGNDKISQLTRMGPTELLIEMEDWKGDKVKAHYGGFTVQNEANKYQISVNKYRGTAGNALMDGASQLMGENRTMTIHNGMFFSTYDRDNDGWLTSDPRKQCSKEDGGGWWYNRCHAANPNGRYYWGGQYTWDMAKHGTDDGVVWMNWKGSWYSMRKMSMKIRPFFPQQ
fibrinogen, sequence (chain, as listed by the source, chain 3 of 3): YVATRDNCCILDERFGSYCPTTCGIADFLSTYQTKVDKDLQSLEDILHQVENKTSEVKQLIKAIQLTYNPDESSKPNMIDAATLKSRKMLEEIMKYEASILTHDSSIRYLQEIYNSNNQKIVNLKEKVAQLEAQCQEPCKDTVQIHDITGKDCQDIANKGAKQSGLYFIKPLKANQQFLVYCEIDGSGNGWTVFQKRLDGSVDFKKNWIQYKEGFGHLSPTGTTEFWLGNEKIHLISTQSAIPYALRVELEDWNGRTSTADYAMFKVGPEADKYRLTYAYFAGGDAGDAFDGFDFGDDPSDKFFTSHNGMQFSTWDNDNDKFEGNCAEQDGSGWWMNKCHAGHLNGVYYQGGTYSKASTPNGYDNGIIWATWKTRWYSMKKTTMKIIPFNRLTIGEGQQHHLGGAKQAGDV

blood coagulation factor 13 (Fibrogammin P), sequence (P00488 2-732, chain 1 of 2): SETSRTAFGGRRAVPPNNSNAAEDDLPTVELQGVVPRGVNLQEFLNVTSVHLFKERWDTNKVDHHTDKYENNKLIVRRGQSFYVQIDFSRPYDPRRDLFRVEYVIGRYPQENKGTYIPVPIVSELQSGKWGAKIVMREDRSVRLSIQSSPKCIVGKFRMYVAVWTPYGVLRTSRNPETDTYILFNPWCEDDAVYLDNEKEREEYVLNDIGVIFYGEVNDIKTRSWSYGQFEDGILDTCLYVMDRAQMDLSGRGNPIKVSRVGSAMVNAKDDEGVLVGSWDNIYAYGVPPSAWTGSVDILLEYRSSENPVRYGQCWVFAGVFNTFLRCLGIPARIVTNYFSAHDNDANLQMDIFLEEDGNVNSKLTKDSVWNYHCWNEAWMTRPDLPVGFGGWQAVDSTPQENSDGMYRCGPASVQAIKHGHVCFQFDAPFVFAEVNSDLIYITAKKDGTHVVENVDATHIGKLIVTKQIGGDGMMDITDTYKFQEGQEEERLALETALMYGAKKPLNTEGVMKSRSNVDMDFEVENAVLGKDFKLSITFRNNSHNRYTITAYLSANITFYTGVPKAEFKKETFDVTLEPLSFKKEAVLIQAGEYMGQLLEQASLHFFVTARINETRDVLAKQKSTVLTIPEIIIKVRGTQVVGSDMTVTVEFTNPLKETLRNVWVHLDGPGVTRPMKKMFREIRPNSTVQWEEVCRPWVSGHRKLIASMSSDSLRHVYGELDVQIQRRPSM
blood coagulation factor 13 (Fibrogammin P), sequence (chain, as listed by the source, chain 2 of 2): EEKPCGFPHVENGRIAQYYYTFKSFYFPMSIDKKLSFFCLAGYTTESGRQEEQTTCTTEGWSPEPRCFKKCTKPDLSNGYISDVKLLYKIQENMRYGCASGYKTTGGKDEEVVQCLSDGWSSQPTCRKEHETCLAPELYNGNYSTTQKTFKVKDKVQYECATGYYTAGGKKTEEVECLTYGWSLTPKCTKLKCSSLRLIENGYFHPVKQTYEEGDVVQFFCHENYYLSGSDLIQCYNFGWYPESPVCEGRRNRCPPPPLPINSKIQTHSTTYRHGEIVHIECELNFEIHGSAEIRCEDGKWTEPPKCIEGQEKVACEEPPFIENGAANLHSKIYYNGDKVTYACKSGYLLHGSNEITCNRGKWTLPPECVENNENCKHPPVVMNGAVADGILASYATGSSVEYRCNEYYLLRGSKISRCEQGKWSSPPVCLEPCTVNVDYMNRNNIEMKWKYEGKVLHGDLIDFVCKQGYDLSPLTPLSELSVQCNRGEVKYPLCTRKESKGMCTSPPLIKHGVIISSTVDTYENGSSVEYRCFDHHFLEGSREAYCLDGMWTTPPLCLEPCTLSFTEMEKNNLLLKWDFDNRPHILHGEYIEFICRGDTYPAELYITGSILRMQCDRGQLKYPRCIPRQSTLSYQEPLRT

Row | Substance | cleavage of FXIII A chain, SDS-PAGE (method B), 37°C 3 hours [1] | cleavage of FXIII A chain, SDS-PAGE (method B), 37°C [1] | clot formation from Fbgn (method C), 37°C 3 hours (fibrinogen)
1 | 205G43A thrombin (serine 205 to glycine, histidine 43 to alanine in B chain) | no band of an A chain-activated product of FXIII was observed | – | –
2 | 203A205A thrombin (glycine 203 to alanine, serine 205 to alanine in B chain) | – | No band of A chain-activated product of FXIII was observed even in lane 6 which was obtained after 3 hour-incubation | –
3 | 203A205A99N thrombin (glycine 203 to alanine, serine 205 to alanine, aspartic acid 99 to asparagine in B chain) | no band of an A chain-activated product of FXIII was observed | – | –
4 | 205A43S thrombin (serine 205 to alanine, histidine 43 to serine in B chain) | no band of A chain-activated product of FXIII was observed | – | –
5 | 203A205G thrombin (glycine at position 203 in B chain substituted by alanine, serine at position 205 substituted by glycine) | – | No band of an A chain-activated product of FXIII was observed in the sample (lane 6) which was obtained after 3-hour incubation | no clot formation was observed
6 | 203A thrombin (glycine at position 203 in B chain substituted by alanine) | – | The A chain of FXIII was observed to provide a cleaved product 30 minutes later, and more than half of the A chain was cleaved after three hours | a clot was formed after three hours
7 | 205A thrombin (serine at position 205 in B chain substituted by alanine) | – | Even 3 hours later, no A chain of activated FXIII was observed as shown in lane 8 | –
8 | 205T thrombin (serine at position 205 in B chain substituted by threonine) | A chains of almost all FXIII were activated in a similar manner as that of the wild-type thrombin, and bands of cleaved FXIII were observed | – | –
9 | 205A99N thrombin (serine 205 to alanine, aspartic acid 99 to asparagine in B chain) | no band of an A chain-activated product of FXIII was observed | – | –
